Assay results from patent US10358672B2, “7-β-hydroxysteroid dehydrogenase mutants and process for the preparation of ursodeoxycholic acid” (Pharmazell GmbH, priority 2014, dated 2019).
Substitutions are numbered along the chain they refer to. Names may count otherwise.

B1: Collinsella aerofaciens 7β-HSDH mutant [R64E], with His tag, SEQ ID NO:4 (Collinsella aerofaciens ATCC 25986; R64E) (protein)
chain: MNLREKYGEWGLILGATEGVGKAFCEKIAAGGMNVVMVGRREEKLNVLAGEIRETYGVETKVVEADFSQPGAAETVFAATEGLDMGFMSYVACLHSFGKIQDTPWEKHEAMINVNVVTFLKCFHHYMRIFAAQDRGAVINVSSMTGISSSPWNGQYGAGKAFILKMTEAVACECEGTGVDVEVITLGTTLTPSLLSNLPGGPQGEAVMKIALTPEECVDEAFEKLGKELSVIAGQRNKDSVHDWKANHTEDEYIRYMGSFYRDLEHHHHHH
B2: Collinsella aerofaciens 7β-HSDH mutant [G39S], with His tag, SEQ ID NO:5 (Collinsella aerofaciens ATCC 25986; G39S) (protein)
chain: B1 chain with G39S, E64R
B3: Collinsella aerofaciens 7β-HSDH dual mutant [G39S/R64E], with His tag, SEQ ID NO:6 (Collinsella aerofaciens ATCC 25986; G39S/R64E) (protein)
chain: B1 chain with G39S
B4: 7β-HSDH [R64D]: 7β-HSDH mutant, arginine in position 64 exchanged for aspartic acid (D) (protein, UniProt A4ECA9 1-263, looked up, variant R64D)
7beta-hydroxysteroid …: MNLREKYGEWGLILGATEGVGKAFCEKIAAGGMNVVMVGRREEKLNVLAGEIRETYGVETKVVDADFSQPGAAETVFAATEGLDMGFMSYVACLHSFGKIQDTPWEKHEAMINVNVVTFLKCFHHYMRIFAAQDRGAVINVSSMTGISSSPWNGQYGAGKAFILKMTEAVACECEGTGVDVEVITLGTTLTPSLLSNLPGGPQGEAVMKIALTPEECVDEAFEKLGKELSVIAGQRNKDSVHDWKANHTEDEYIRYMGSFYRD
B5: 7β-HSDH [R64T]: 7β-HSDH mutant, R in position 64 replaced by T (protein, UniProt A4ECA9 1-263, looked up, variant R64T)
7beta-hydroxysteroid …: B4 7beta-hydroxysteroid … with D64T
B6: 7β-HSDH [R64K]: 7β-HSDH mutant, R in position 64 replaced by K (protein, UniProt A4ECA9 1-263, looked up, variant R64K)
7beta-hydroxysteroid …: B4 7beta-hydroxysteroid … with D64K
B7: 7β-HSDH [R64S]: 7β-HSDH mutant, R in position 64 replaced by S (protein, UniProt A4ECA9 1-263, looked up, variant R64S)
7beta-hydroxysteroid …: B4 7beta-hydroxysteroid … with D64S
B8: 7β-HSDH [R64C]: 7β-HSDH mutant, R in position 64 replaced by C (protein, UniProt A4ECA9 1-263, looked up, variant R64C)
7beta-hydroxysteroid …: B4 7beta-hydroxysteroid … with D64C
B9: 7β-HSDH [R64W]: 7β-HSDH mutant, R in position 64 replaced by W (protein, UniProt A4ECA9 1-263, looked up, variant R64W)
7beta-hydroxysteroid …: B4 7beta-hydroxysteroid … with D64W
B10: 7β-HSDH [R64A]: 7β-HSDH mutant, R in position 64 replaced by A (protein, UniProt A4ECA9 1-263, looked up, variant R64A)
7beta-hydroxysteroid …: B4 7beta-hydroxysteroid … with D64A
B11: 7β-HSDH [R64L]: 7β-HSDH mutant, R in position 64 replaced by L (protein, UniProt A4ECA9 1-263, looked up, variant R64L)
7beta-hydroxysteroid …: B4 7beta-hydroxysteroid … with D64L
B12: 7β-HSDH [R64F]: 7β-HSDH mutant, R in position 64 replaced by F (protein, UniProt A4ECA9 1-263, looked up, variant R64F)
7beta-hydroxysteroid …: B4 7beta-hydroxysteroid … with D64F
B13: 7β-HSDH [R64G]: 7β-HSDH mutant, R in position 64 replaced by G (protein, UniProt A4ECA9 1-263, looked up, variant R64G)
7beta-hydroxysteroid …: B4 7beta-hydroxysteroid … with D64G
B14: 7β-HSDH [R64N]: 7β-HSDH mutant, R in position 64 replaced by N (protein, UniProt A4ECA9 1-263, looked up, variant R64N)
7beta-hydroxysteroid …: B4 7beta-hydroxysteroid … with D64N
B15: 7β-HSDH [R64I]: 7β-HSDH mutant, R in position 64 replaced by I (protein, UniProt A4ECA9 1-263, looked up, variant R64I)
7beta-hydroxysteroid …: B4 7beta-hydroxysteroid … with D64I
B16: 7β-HSDH [R64P]: 7β-HSDH mutant, R in position 64 replaced by P (protein, UniProt A4ECA9 1-263, looked up, variant R64P)
7beta-hydroxysteroid …: B4 7beta-hydroxysteroid … with D64P
B17: 7β-HSDH [R64Y]: 7β-HSDH mutant, R in position 64 replaced by Y (protein, UniProt A4ECA9 1-263, looked up, variant R64Y)
7beta-hydroxysteroid …: B4 7beta-hydroxysteroid … with D64Y
B18: 7β-HSDH [R64V]: 7β-HSDH mutant, R in position 64 replaced by V (protein, UniProt A4ECA9 1-263, looked up, variant R64V)
7beta-hydroxysteroid …: B4 7beta-hydroxysteroid … with D64V
B19: 7β-HSDH [T17S]: 7β-HSDH mutant, threonine at position 17 replaced by S (protein, UniProt A4ECA9 1-263, looked up, variant T17S)
7beta-hydroxysteroid …: B4 7beta-hydroxysteroid … with T17S, D64R

Substrate: NC(=O)C1=CN([C@@H]2O[C@H](COP(=O)(O)OP(=O)(O)OC[C@H]3O[C@@H](n4cnc5c(N)ncnc54)[C@H](OP(=O)(O)O)[C@@H]3O)[C@@H](O)[C@H]2O)C=CC1
Assay: cells, lysate or membranes named
Conditions: other: purified enzyme, 340 nm, 50 mM KPi pH 8.0, substrate DHCA / cofactor NADPH

Row | Molecule | Km | Vmax
1 | B1 | 45.48 ± 3.5 µM | 60.3 µmol/min/mg
2 | B2 | 34.5 ± 6.6 µM | 48.8 µmol/min/mg
3 | B3 | 76.6 ± 15.9 µM | 75.5 µmol/min/mg

Substrate: C[C@H](CCC(=O)O)[C@H]1CC[C@H]2[C@@H]3C(=O)C[C@@H]4CC(=O)CC[C@]4(C)[C@H]3CC(=O)[C@]12C
Assay: cells, lysate or membranes named
Conditions: other: purified enzyme, 340 nm, 50 mM KPi pH 8.0, substrate DHCA / cofactor NADPH

Row | Molecule | Km | Vmax
4 | B1 | 81.01 ± 18.9 µM | 41.6 µmol/min/mg
5 | B2 | 352.4 ± 42.7 µM | 52 µmol/min/mg
6 | B3 | 349.3 ± 5.23 µM | 54.3 µmol/min/mg

Target: 7β-HSDH obtainable from Collinsella aerofaciens DSM 3979 (Collinsella aerofaciens, UniProt A4ECA9)
Assay: not given
Conditions: cited from earlier work

7β-HSDH obtainable from Collinsella aerofaciens DSM 3979, sequence (A4ECA9 whole entry): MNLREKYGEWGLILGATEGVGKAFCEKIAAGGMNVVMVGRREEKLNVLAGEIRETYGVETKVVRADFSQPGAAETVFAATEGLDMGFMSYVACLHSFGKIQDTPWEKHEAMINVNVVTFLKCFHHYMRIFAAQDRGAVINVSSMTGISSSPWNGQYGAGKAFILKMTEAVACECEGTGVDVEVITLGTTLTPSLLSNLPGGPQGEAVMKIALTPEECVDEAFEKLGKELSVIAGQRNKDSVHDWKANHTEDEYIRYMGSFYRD

Row | Molecule | Vmax | kcat
7 | C[C@H](CCC(=O)O)[C@H]1CC[C@H]2[C@@H]3C(=O)C[C@@H]4C[C@H](O)CC[C@]4(C)[C@H]3CC[C@]12C [Mutant 7-Keto-LCA, 7-keto-lithocholic acid] | 30.77 U/mg Protein | 950.77
8 | C[C@H](CCC(=O)O)[C@H]1CC[C@H]2[C@@H]3[C@@H](O)C[C@@H]4C[C@H](O)CC[C@]4(C)[C@H]3CC[C@]12C [UDCA, Ursodeoxycholic acid] | – | 1179.39
9 | NC(=O)C1=CN([C@@H]2O[C@H](COP(=O)(O)OP(=O)(O)OC[C@H]3O[C@@H](n4cnc5c(N)ncnc54)[C@H](OP(=O)(O)O)[C@@H]3O)[C@@H](O)[C@H]2O)C=CC1 [NADPH] | 33.44 U/mg Protein | 1033.44

Test system: not listed separately
Assay: Photometric activity determination of 7β-HSDH and mutants (decrease in absorbance at 340 nm, DHCA reduction with NADPH)
Assay type: biochemical
Conditions: Table 4, variants modified at position 64; 10 mM DHCA, NADPH, KPi pH 8.0
Description: The activity of the 7β-HSDH and of the mutants was determined using a photometric assay, where the decrease in absorbance was measured at 340 nm over a period of 30 seconds.
The expression [R64E] in the first column of the table means that the arginine (R) in position 64 of the protein sequence had been replaced by glutamic acid (E) in the mutant in question. The respective amino acid is abbreviated using the international one-letter code. Analogously, [R64D] means that an aspartic acid has been introduced at this position.

Row | Molecule | Specific activity | Volumetric activity
10 | B4 | 32.1 U/mg | 641.6 U/ml
11 | B5 | 27.4 U/mg | 450.5 U/ml
12 | B6 | 15.1 U/mg | 296.5 U/ml
13 | B7 | 20.1 U/mg | 333.7 U/ml
14 | B8 | 14.19 U/mg | 269.7 U/ml
15 | B9 | 10.1 U/mg | 214 U/ml
16 | B10 | 13.77 U/mg | 273 U/ml
17 | B11 | 20.9 U/mg | 334 U/ml
18 | B12 | 10.5 U/mg | 216 U/ml
19 | B13 | 12.36 U/mg | 223 U/ml
20 | B14 | 0.6 U/mg | 3.4 U/ml
21 | B15 | 9.83 U/mg | 171 U/ml
22 | B16 | 19.1 U/mg | 402.0 U/ml
23 | B17 | 9.7 U/mg | 220.3 U/ml
24 | B18 | 15.1 U/mg | 407.7 U/ml

Same assay, conditions: Table 9, variants modified at position 17

Row | Molecule | Specific activity | Volumetric activity
25 | B19 | 17.2 U/mg | 580 U/ml

Same assay, conditions: qualitative statement

Row | Molecule | activity compared with the wild-type enzyme
26 | B4 | increase in the specific activity
27 | B5 | increase in the specific activity
